{
  "source": "patent US20050054835A1",
  "about": "(XOMA TECHNOLOGY, published 2005)",
  "binders": {"B1": {"name": "he3Fab-rGelA50(C44) (other, not shown: a dimerising Fc or GST)", "heavy": "EIQLVQSGGGLVKPGGSVRISCAASGYTFTNYGMNWVRQAPGKGLEWMGWINTHTGEPTYADSFKGRFTFSLDDSKNTAYLQINSLRAEDTAVYFCTRRGYDWYFDVWGQGTTVTVSS", "light": "DIQMTQSPSSLSASVGDRVTITCRASQDINSYLSWFQQKPGKAPKTLIYRANRLESGVPSRFSGSGSGTDYTLTISSLQYEDFGIYYCQQYDESPWTFGGGTKLEIK", "chain": "GLDTVSFSTKGATYITYVNFLNELRVKLKPEGNSHGIPLLRKKCDDPGKAFVLVALSNDNGQLAEIAIDVTSVYVVGYQVRNRSYFFKDAPDAAYEGLFKNTIKTRLHFGGSYPSLEGEKAYRETTDLGIEPLRIGIKKLDENAIDNYKPTEIASSLLVVIQMVSEAARFTFIENQIRNNFQQRIRPANNTISLENKWGKLSFQIRTSGANGMFSEAVELERANGKKYYVTAVDQVKPKIALLKFVDKDPK", "modifications": "Cys 44 disulfide-linked through an M2IT linker to the Fab"}},
  "target": "T1, human CD5 cell differentiation marker (human, UniProt P06127 25-495)",
  "T1 sequence": "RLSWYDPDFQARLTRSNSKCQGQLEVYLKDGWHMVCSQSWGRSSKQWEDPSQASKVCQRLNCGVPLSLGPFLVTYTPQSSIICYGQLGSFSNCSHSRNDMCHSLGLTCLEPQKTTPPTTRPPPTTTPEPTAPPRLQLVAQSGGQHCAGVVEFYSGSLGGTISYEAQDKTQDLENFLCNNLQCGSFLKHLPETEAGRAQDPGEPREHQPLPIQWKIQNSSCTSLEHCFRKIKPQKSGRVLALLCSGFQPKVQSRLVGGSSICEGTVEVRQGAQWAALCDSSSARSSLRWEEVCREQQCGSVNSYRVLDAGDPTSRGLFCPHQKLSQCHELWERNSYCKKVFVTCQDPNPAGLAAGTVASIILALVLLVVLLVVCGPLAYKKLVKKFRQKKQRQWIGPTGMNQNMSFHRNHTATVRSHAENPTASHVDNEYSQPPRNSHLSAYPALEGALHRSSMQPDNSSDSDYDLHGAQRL",
  "assay": "cell-based or functional assay",
  "data": [
    {"binder": "B1", "values": [
      {"measurement": "IC50, whole cell cytotoxicity (inhibition of protein synthesis), CEM cells", "value": 173, "unit": "pM T"},
      {"measurement": "IC50, whole cell cytotoxicity (inhibition of protein synthesis), HSB2 cells", "value": 165, "unit": "pM T"}
    ]}
  ]
}
